In article PMC7959386 (2021):

B1: MR17 (synthetic nanobody, sybody) (VHH)
VHH: QVQLVESGGGLVQAGGSLRLSCAASGFPVEVWRMEWYRQAPGKEREGVAAIESYGHGTRYADSVKGRFTISRDNAKNTVYLQMNSLKPEDTAVYYCNVKDDGQLAYHYDYWGQGTQVTVSA
B2: MR6 (synthetic nanobody, sybody) (VHH)
VHH: QVQLVESGGGLVQAGGSLRLSCAASGFPVEDTWMEWYRQAPGKEREWVAAITSWGFKTYYADSVKGRFTISRDNAKNTVYLQMNSLKPEDTAVYYCNVKDEGDTSASYDYWGQGTQVTVSS

Legend:
[1] = biological target: T1, SARS-CoV-2 Spike receptor-binding domain (residues 330-541) (SARS-CoV-2, UniProt P0DTC2 330-541); assay: BLI
[2] = biological target: T1, SARS-CoV-2 Spike receptor-binding …; assay: BLI; remark: listed apart in the source

| Binder | koff [1] [s⁻¹] | Kd [2] [nM] |
| --- | --- | --- |
| B1 | 0.0097 | 83.7 |
| B2 | 0.0072 | – |
